± gives the uncertainty stated by the source.
Assay: self-splicing fitness, log relative to wild type (ln ratio); higher = more splicing; Tetrahymena group I intron in knt gene, E. coli kanamycin selection, DiMSum; sequences stand for … in CUCUCU…GGAGGGAAAAGUUAUCAGGCAUGCACCUGGUAGCUAGUCUUUAAACCAAUAGAUUGCAUCGGUUUAAAAGGCAAGACCGUCAAAUUGCGGGAAAGGGGUCAACAGCCGUUCAGUACCAAGUCUCAGGGGAAACUUUGAGAUGGCCUUGCAAAGGGUAUGGUAAUAAGCUGACGGACAUGGUCCUAACCACGCAGCCAAGUCCUAAGUCAACAGAUCUUCUGUUGAUAUGGAUGCAGUUCACAGACUAAAUGUCGGUCGGGGAAGAUGUAUUCUUCUCAUAAGAUAUAGUCGGACCUCUCCUUAAUGGGAGCUAGCGGAUGAAGUGAUGCAACACUGGAGCCGCUGGGAACUAAUUUGUAUGCGAAAGUAUAUUGAUUAGUUUUGGAGUACUCGUGGUCG
Summary of the method: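 The eight P1ex-region nucleotides of an intron in the knt kanamycin-resistance gene on pET-22b(+) were all randomised and the library put into E. coli BL21(DE3). Six replicate transformations were grown overnight at 37°C or 30°C on LB agar with or without 25 μg/mL kanamycin, together with 100 μg/mL carbenicillin, 50 μM IPTG and 0.2% rhamnose. Colonies were pooled and amplicon-sequenced on an Illumina HiSeq 2500. Fitness from DiMSum is the error-weighted combination of wild-type-normalised replicate fold changes, kanamycin over none.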

Sequence	self-splicing fitness (ln) (30 °C)	self-splicing fitness (ln) (37 °C)
UUAUAGCAAUAUUACGCCCG	-1.45 ± 0.36	
UUAUAGCAAUAUUACGCUGA	-2.17 ± 0.14	-0.624 ± 0.13
UUAUAGCAAUAUUACGGUCG	-0.705 ± 0.11	0.176 ± 0.15
UUAUAGCAAUAUUACGGUUU	-1.66 ± 0.1	-1.09 ± 0.12
UUAUAGCAAUAUUACGUCGU	-3.1 ± 0.3	
UUAUAGCAAUAUUACGUUAG	-1.1 ± 0.12	-0.717 ± 0.14
UUAUAGCAAUAUUACGUUGU	-3.44 ± 0.27	-2.38 ± 0.23
UUCAAGCAAUAUUACGAAAC	-2.77 ± 0.31	-2.89 ± 0.35
UUCAAGCAAUAUUACGAGCU	-2.99 ± 0.23	-1.33 ± 0.18
UUCAAGCAAUAUUACGCAGG	-2.71 ± 0.14	-1.78 ± 0.13
UUCAAGCAAUAUUACGCGGA	-2.64 ± 0.16	-2.09 ± 0.15
UUCAAGCAAUAUUACGCGUC	-2.89 ± 0.15	-0.969 ± 0.16
UUCAAGCAAUAUUACGGAUC	-1.5 ± 0.25	-2.84 ± 0.21
UUCAAGCAAUAUUACGGCAA	0.101 ± 0.1	0.0563 ± 0.11
UUCAAGCAAUAUUACGGGCC		-2.94 ± 0.48
UUCAAGCAAUAUUACGGGGC	-3.6 ± 0.27	-2.8 ± 0.33
UUCAAGCAAUAUUACGGGGG	-3.34 ± 0.26	-0.739 ± 0.16
UUCAAGCAAUAUUACGGGUG	-0.476 ± 0.045	-0.593 ± 0.06
UUCAAGCAAUAUUACGGUGU	-2.98 ± 0.18	-2.49 ± 0.17
UUCAAGCAAUAUUACGUACC		-1.69 ± 0.2
UUCAAGCAAUAUUACGUAGC	-4.06 ± 0.26	-2.3 ± 0.25
UUCAAGCAAUAUUACGUAUA	-1.48 ± 0.1	-0.136 ± 0.096
UUCAAGCAAUAUUACGUCUC	-3.33 ± 0.26	-1.74 ± 0.18
UUCAAGCAAUAUUACGUGAA	-0.675 ± 0.089	-0.479 ± 0.12
UUCAAGCAAUAUUACGUUAG	-3.23 ± 0.12	-1.32 ± 0.089

Sequence	self-splicing fitness (ln) (30 °C)	self-splicing fitness (ln) (37 °C)
UUCAAGCAAUAUUACGUUGU	-3.87 ± 0.19	-1.34 ± 0.12
UUCCAGCAAUAUUACGAAGA	-0.997 ± 0.11	-0.671 ± 0.1
UUCCAGCAAUAUUACGAAGC	-2.59 ± 0.32	-1.92 ± 0.26
UUCCAGCAAUAUUACGAAUA	-1.24 ± 0.15	-0.772 ± 0.16
UUCCAGCAAUAUUACGACCA	-0.177 ± 0.26	-0.862 ± 0.23
UUCCAGCAAUAUUACGACGA	-0.529 ± 0.12	0.216 ± 0.15
UUCCAGCAAUAUUACGACUC	-3.04 ± 0.24	-1.67 ± 0.19
UUCCAGCAAUAUUACGAUCG	-2.6 ± 0.12	-1.04 ± 0.14
UUCCAGCAAUAUUACGCAAA	-1.42 ± 0.12	-0.0764 ± 0.13
UUCCAGCAAUAUUACGCAGU	-3.23 ± 0.17	-2.79 ± 0.28
UUCCAGCAAUAUUACGCGUG	-1.43 ± 0.069	-0.516 ± 0.073
UUCCAGCAAUAUUACGCUUC	-4.08 ± 0.24	-2.58 ± 0.18
UUCCAGCAAUAUUACGCUUG	-2.97 ± 0.21	-1.94 ± 0.22
UUCCAGCAAUAUUACGGAAG	-2.85 ± 0.19	-2.16 ± 0.2
UUCCAGCAAUAUUACGGACG	-0.4 ± 0.048	0.421 ± 0.077
UUCCAGCAAUAUUACGGGCU	-4.67 ± 0.31	-2.18 ± 0.17
UUCCAGCAAUAUUACGGUAA	-0.236 ± 0.087	-0.0663 ± 0.086
UUCCAGCAAUAUUACGGUGC	-1.9 ± 0.16	-1.23 ± 0.18
UUCCAGCAAUAUUACGGUUC	-2.81 ± 0.16	-1.99 ± 0.24
UUCCAGCAAUAUUACGUAGA	-0.592 ± 0.076	-0.502 ± 0.093
UUCCAGCAAUAUUACGUAGU	-1.32 ± 0.093	-1.57 ± 0.12
UUCCAGCAAUAUUACGUAUU	-3.21 ± 0.18	-1.7 ± 0.19
UUCCAGCAAUAUUACGUCGA	-0.549 ± 0.099	0.355 ± 0.11
UUCCAGCAAUAUUACGUCGU	-4.1 ± 0.19	-1.85 ± 0.12
UUCCAGCAAUAUUACGUGUA	-0.989 ± 0.058	-0.572 ± 0.064

Sequence	self-splicing fitness (ln) (30 °C)	self-splicing fitness (ln) (37 °C)
UUCCAGCAAUAUUACGUGUG	-0.736 ± 0.04	-0.164 ± 0.055
UUCCAGCAAUAUUACGUGUU	-4.2 ± 0.25	-2.48 ± 0.21
UUCCAGCAAUAUUACGUUGA	-1.63 ± 0.078	-1.17 ± 0.092
UUCGAGCAAUAUUACGAAAG	-2.66 ± 0.36	
UUCGAGCAAUAUUACGAACA	-2.9 ± 0.28	-1.73 ± 0.18
UUCGAGCAAUAUUACGAAGU		-1.57 ± 0.32
UUCGAGCAAUAUUACGAAUC		-2.97 ± 0.4
UUCGAGCAAUAUUACGAGCU	-3.65 ± 0.43	-2.44 ± 0.45
UUCGAGCAAUAUUACGAUUU	-4.18 ± 0.28	-2.19 ± 0.2
UUCGAGCAAUAUUACGCAUU		-2.81 ± 0.43
UUCGAGCAAUAUUACGCCUA	-1.67 ± 0.11	-1.39 ± 0.097
UUCGAGCAAUAUUACGCGCA	-0.15 ± 0.13	-0.296 ± 0.17
UUCGAGCAAUAUUACGCUAC		-0.0805 ± 0.34
UUCGAGCAAUAUUACGCUGU	-3.54 ± 0.2	-2.14 ± 0.21
UUCGAGCAAUAUUACGGACU	-4.76 ± 0.38	-2.63 ± 0.21
UUCGAGCAAUAUUACGGAUU	-3.84 ± 0.23	-3.1 ± 0.29
UUCGAGCAAUAUUACGGCAA	-0.587 ± 0.099	-0.26 ± 0.12
UUCGAGCAAUAUUACGGCUG	-2.58 ± 0.23	-1.81 ± 0.22
UUCGAGCAAUAUUACGGCUU	-3.14 ± 0.18	-2.65 ± 0.33
UUCGAGCAAUAUUACGGGCU		-3.81 ± 0.42
UUCGAGCAAUAUUACGGUAG	-3.12 ± 0.31	-0.753 ± 0.14
UUCGAGCAAUAUUACGGUUA	-1.19 ± 0.13	-1.05 ± 0.1
UUCUAGCAAUAUUACGACAA	-0.37 ± 0.12	-0.0185 ± 0.17
UUCUAGCAAUAUUACGACGA	-0.439 ± 0.12	0.731 ± 0.14
UUCUAGCAAUAUUACGACGC	-2.76 ± 0.44	

Sequence	self-splicing fitness (ln) (30 °C)	self-splicing fitness (ln) (37 °C)
UUCUAGCAAUAUUACGAGGG		-1.5 ± 0.17
UUCUAGCAAUAUUACGAUUA	-0.696 ± 0.14	0.682 ± 0.12
UUCUAGCAAUAUUACGCCUG	-1.79 ± 0.4	-1.6 ± 0.49
UUCUAGCAAUAUUACGCGAG	-2.97 ± 0.28	-1.45 ± 0.21
UUCUAGCAAUAUUACGCGGU	-2.74 ± 0.2	-0.435 ± 0.24
UUCUAGCAAUAUUACGGACU	-1.6 ± 0.17	-1.16 ± 0.19
UUCUAGCAAUAUUACGGAGC	-2.48 ± 0.44	
UUCUAGCAAUAUUACGGCAU	-1.81 ± 0.16	-1.58 ± 0.19
UUCUAGCAAUAUUACGUAUU	-3.61 ± 0.33	-2.57 ± 0.25
UUCUAGCAAUAUUACGUCAC		-2.28 ± 0.37
UUCUAGCAAUAUUACGUGAA	-0.339 ± 0.066	-0.148 ± 0.082
UUCUAGCAAUAUUACGUGGA	-1.73 ± 0.31	-1.15 ± 0.18
UUCUAGCAAUAUUACGUUAU	-1.76 ± 0.26	-2.14 ± 0.27
UUGAAGCAAUAUUACGAAAA	-0.641 ± 0.12	0.066 ± 0.15
UUGAAGCAAUAUUACGAAAU	-3.51 ± 0.13	-0.963 ± 0.09
UUGAAGCAAUAUUACGAUAU	-1.97 ± 0.075	-1.03 ± 0.1
UUGAAGCAAUAUUACGAUGG	-0.452 ± 0.07	0.232 ± 0.1
UUGAAGCAAUAUUACGCAUA	-0.461 ± 0.072	0.189 ± 0.1
UUGAAGCAAUAUUACGCCGA	0.633 ± 0.2	0.737 ± 0.25
UUGAAGCAAUAUUACGCUAU	-2.7 ± 0.25	-1.45 ± 0.26
UUGAAGCAAUAUUACGCUUU	-3.5 ± 0.23	-2.56 ± 0.36
UUGAAGCAAUAUUACGGAAC	-3.62 ± 0.32	-2.08 ± 0.3
UUGAAGCAAUAUUACGGCCU	-0.822 ± 0.13	-0.147 ± 0.16
UUGAAGCAAUAUUACGGGAC	-2.18 ± 0.3	-2.34 ± 0.28

Source: the supplement of paper PMC7877785
